Experimental findings from patent US20130195871A1 (AbbVie / Abbott, published 2013) are described below.

Assay [1] addresses T1, Recombinant Human EGFR ECD (human, UniProt P00533 25-645).
T1 construct: extracellular domain; bought reagent
As to the kind of experiment: SPR (Biacore), C-terminal VD. (In SPR one partner is held on a chip, and binding of the other changes the refractive index at the surface.)

Assay [2] concerns the target T2, Recombinant Human IGF1R (human, UniProt P08069 31-932).
T2 construct: bought reagent
As to the kind of experiment: SPR (Biacore), N-terminal VD.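 Further: capture of antibodies or DVD-Ig proteins on an anti-mouse IgG chip surface, recombinant antigen injected at 10–200 nM in HBS-EP running buffer at 25 °C.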

Assay [3] has as its target T3, Recombinant Human ErbB3/FC Chimera-His tag (human, UniProt P21860 20-643).
T3 construct: bought reagent
As to the kind of experiment: SPR (Biacore), C-terminal VD.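 Further: surface plasmon resonance with DVD-Ig proteins captured on an anti-IgG chip and recombinant antigen flowed over in HBS-EP buffer, Langmuir global fit, KD taken as koff/kon.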

The target of assay [4] is T2, Recombinant Human IGF1R. As to the kind of experiment: SPR (Biacore).
Description: (§1) The BIACORE assay (Biacore, Inc, Piscataway, N.J.) determined the affinity of antibodies or DVD-Ig proteins with kinetic measurements of on-rate and off-rate constants. Binding of antibodies or DVD-Ig proteins to a target antigen (for example, a purified recombinant target antigen) was determined by surface plasmon resonance-based measurements with a Biacore® 1000 or 3000 instrument (Biacore AB, Uppsala. Sweden) using running HBS-EP (10 mM HEPES [pH 7.4], 150 mM NaCl, 3 mM EDTA, and 0.005% surfactant P20) at 25° C. […] For example, approximately 5000 RU of goat anti-mouse IgG, (Fcγ), fragment specific polyclonal antibody (Pierce Biotechnology Inc, Rockford, Ill.) diluted in 10 mM sodium acetate (pH 4.5) was directly immobilized across a CM5 research grade biosensor chip using a standard amine coupling kit according to manufacturer's instructions and procedures at 25 μg/ml. Unreacted moieties on the biosensor surface were blocked with ethanolamine. Modified carboxymethyl dextran surface in flowcell 2 and 4 was used as a reaction surface. Unmodified carboxymethyl dextran without goat anti-mouse IgG in flow cell 1 and 3 was used as the reference surface. For kinetic analysis, rate equations derived from the 1:1 Langmuir binding model were fitted simultaneously to association and dissociation phases of all eight injections (using global fit analysis) with the use of Biaevaluation 4.0.1 software. Purified antibodies or DVD-Ig proteins were diluted in HEPES-buffered saline for capture across goat anti-mouse IgG specific reaction surfaces. Antibodies or DVD-Ig proteins to be captured as a ligand (25 μg/ml) were injected over reaction matrices at a flow rate of 5 μl/minute. The association and dissociation rate constants, kₒₙ (M⁻¹s⁻¹) and koff (s⁻¹) were determined under a continuous flow rate of 25 μl/minute. Rate constants were derived by making kinetic binding measurements at different antigen concentrations ranging from 10-200 nM. The equilibrium dissociation constant (M) of the reaction between antibodies or DVD-Ig proteins and the target antigen was then calculated from the kinetic rate constants by the following formula: KD=koff/kₒₙ. Binding was recorded as a function of time and kinetic rate constants were calculated.
Assay [5] deals with T1, Recombinant Human EGFR ECD. Nature of the assay: SPR (Biacore), N-terminal VD.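 Further: capture of antibodies or DVD-Ig proteins on an anti-mouse IgG chip surface, recombinant antigen injected at 10–200 nM in HBS-EP running buffer at 25 °C.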
Assay [6] addresses T3, Recombinant Human ErbB3/FC Chimera-His …. Nature of the assay: SPR (Biacore).
Description: as §1

B1: DVD2284 (bispecific antibody)
VH: EVQLVQSGAEVKKPGSSVKVSCKASGGTFSSYAISWVRQAPGQGLEWMGGIIPIFGTANYAQKFQGRVTITADKSTSTAYMELSSLRSEDTAVYYCARAPLRFLEWSTQDHYYYYYMDVWGKGTTVTVSSASTKGPQVQLQESGPGLVKPSQTLSLTCTVSGYSISSDFAWNWIRQPPGKGLEWMGYISYSGNTRYQPSLKSRITISRDTSKNQFFLKLNSVTAADTATYYCVTAGRGFPYWGQGTLVTVSS
VL: SSELTQDPAVSVALGQTVRITCQGDSLRSYYATWYQQKPGQAPILVIYGENKRPSGIPDRFSGSSSGNTASLTITGAQAEDEADYYCKSRDGSGQHLVFGGGTKLTVLGQPKAAPDIQMTQSPSSMSVSVGDRVTITCHSSQDINSNIGWLQQKPGKSFKGLIYHGTNLDDGVPSRFSGSGSGTDYTLTISSLQPEDFATYYCVQYAQFPWTFGGGTKLEIK
What is called Kd is the concentration at which binding is half-saturated. Broadly, the koff is the rate constant with which the complex falls apart. The term kon denotes the second-order rate constant of association. Regarding B1, in assay [1], the Kd amounted to 6.1 nM, the koff came out at 0.00016 s⁻¹ and the kon stood at 26000 M⁻¹ s⁻¹. In addition, in the assay with Recombinant Human IGF1R [2], the Kd amounted to 7.4 nM, the koff is 0.00019 s⁻¹ and the kon was 26000 M⁻¹ s⁻¹.

B2: DVD2274 (bispecific antibody)
VH: EVQLVESGGGLVQPGGSLRLSCAASGFTFTDYTMDWVRQAPGKGLEWVADVNPNSGGSIYNQRFKGRFTLSVDRSKNTLYLQMNSLRAEDTAVYYCARNLGPSFYFDYWGQGTLVTVSSASTKGPQVQLQQWGAGLLKPSETLSLTCAVYGGSFSGYYWSWIRQPPGKGLEWIGEINHSGSTNYNPSLKSRVTISVETSKNQFSLKLSSVTAADTAVYYCARDKWTWYFDLWGRGTLVTVSS
VL: DIQMTQSPSSLSASVGDRVTITCKASQDVSIGVAWYQQKPGKAPKLLIYSASYRYTGVPSRFSGSGSGTDFTLTISSLQPEDFATYYCQQYYIYPYTFGQGTKVEIKRTVAAPDIEMTQSPDSLAVSLGERATINCRSSQSVLYSSSNRNYLAWYQQNPGQPPKLLIYWASTRESGVPDRFSGSGSGTDFTLTISSLQAEDVAVYYCQQYYSTPRTFGQGTKVEIK
notes: DVD-Ig, outer AB080 / inner AB062
In the case of B2, the binding result in assay [3] was “no binding (tested: 10-200 nM)”.

B3: DVD2214 (bispecific antibody)
VH: EVQLVQSGAEVKKPGSSVKVSCKASGGTFSSYAISWVRQAPGQGLEWMGGIIPIFGTANYAQKFQGRVTITADKSTSTAYMELSSLRSEDTAVYYCARAPLRFLEWSTQDHYYYYYMDVWGKGTTVTVSSASTKGPEVQLLESGGGLVQPGGSLRLSCTASGFTFSSYAMNWVRQAPGKGLEWVSAISGSGGTTFYADSVKGRFTISRDNSRTTLYLQMNSLRAEDTAVYYCAKDLGWSDSYYYYYGMDVWGQGTTVTVSS
VL: SSELTQDPAVSVALGQTVRITCQGDSLRSYYATWYQQKPGQAPILVIYGENKRPSGIPDRFSGSSSGNTASLTITGAQAEDEADYYCKSRDGSGQHLVFGGGTKLTVLGQPKAAPDIQMTQFPSSLSASVGDRVTITCRASQGIRNDLGWYQQKPGKAPKRLIYAASRLHRGVPSRFSGSGSGTEFTLTISSLQPEDFATYYCLQHNSYPCSFGQGTKLEIK
notes: DVD-Ig, outer AB075 / inner AB011
Regarding B3, in the assay with Recombinant Human IGF1R [4], the Kd was 5.5 nM, the koff came out at 0.00014 s⁻¹ and the kon is 26000 M⁻¹ s⁻¹.

B4: DVD2218 (bispecific antibody)
VH: EVQLVQSGAEVKKPGSSVKVSCKASGGTFSSYAISWVRQAPGQGLEWMGGIIPIFGTANYAQKFQGRVTITADKSTSTAYMELSSLRSEDTAVYYCARAPLRFLEWSTQDHYYYYYMDVWGKGTTVTVSSASTKGPSVFPLAPEVQLLESGGGLVQPGGSLRLSCTASGFTFSSYAMNWVRQAPGKGLEWVSAISGSGGTTFYADSVKGRFTISRDNSRTTLYLQMNSLRAEDTAVYYCAKDLGWSDSYYYYYGMDVWGQGTTVTVSS
VL: B3 VL
notes: as for B3
In the case of B4, in the assay with Recombinant Human IGF1R [4], the Kd was found to be 5.3 nM, the koff turned out to be 0.00013 s⁻¹ and the kon is 25000 M⁻¹ s⁻¹.

B5: DVD2216 (bispecific antibody)
VH: B3 VH
VL: SSELTQDPAVSVALGQTVRITCQGDSLRSYYATWYQQKPGQAPILVIYGENKRPSGIPDRFSGSSSGNTASLTITGAQAEDEADYYCKSRDGSGQHLVFGGGTKLTVLGQPKAAPSVTLFPPDIQMTQFPSSLSASVGDRVTITCRASQGIRNDLGWYQQKPGKAPKRLIYAASRLHRGVPSRFSGSGSGTEFTLTISSLQPEDFATYYCLQHNSYPCSFGQGTKLEIK
notes: as for B3
Regarding B5, in the assay with Recombinant Human IGF1R [4], the Kd worked out at 6.6 nM, the koff was found to be 0.00012 s⁻¹ and the kon turned out to be 19000 M⁻¹ s⁻¹.

B6: DVD2268 (bispecific antibody)
VH: EVQLVESGGGLVQPGGSLRLSCAASGFTFTDYTMDWVRQAPGKGLEWVADVNPNSGGSIYNQRFKGRFTLSVDRSKNTLYLQMNSLRAEDTAVYYCARNLGPSFYFDYWGQGTLVTVSSASTKGPQVQLQESGPGLVKPSETLSLTCTVSGGSVSSGDYYWTWIRQSPGKGLEWIGHIYYSGNTNYNPSLKSRLTISIDTSKTQFSLKLSSVTAADTAIYYCVRDRVTGAFDIWGQGTMVTVSS
VL: DIQMTQSPSSLSASVGDRVTITCKASQDVSIGVAWYQQKPGKAPKLLIYSASYRYTGVPSRFSGSGSGTDFTLTISSLQPEDFATYYCQQYYIYPYTFGQGTKVEIKRTVAAPDIQMTQSPSSLSASVGDRVTITCQASQDISNYLNWYQQKPGKAPKLLIYDASNLETGVPSRFSGSGSGTDFTFTISSLQPEDIATYFCQHFDHLPLAFGGGTKVEIK
On to B6, for which, in assay [1], the Kd amounted to 18 nM, the koff was 0.00035 s⁻¹ and the kon came to 19000 M⁻¹ s⁻¹.

B7: DVD2348 (bispecific antibody)
VH: QVQLQESGPGLVKPSQTLSLTCTVSGYSISSDFAWNWIRQPPGKGLEWMGYISYSGNTRYQPSLKSRITISRDTSKNQFFLKLNSVTAADTATYYCVTAGRGFPYWGQGTLVTVSSASTKGPEVQLVESGGGLVQPGGSLRLSCAASGFSLTNYGVHWVRQAPGKGLEWLGVGWSGGNTDYNTPFTSRLTINKDNSKNTVYLQMNSLRAEDTAVYYCARALTWYDYEFAYWGQGTLVTVSS
VL: DIQMTQSPSSMSVSVGDRVTITCHSSQDINSNIGWLQQKPGKSFKGLIYHGTNLDDGVPSRFSGSGSGTDYTLTISSLQPEDFATYYCVQYAQFPWTFGGGTKLEIKRTVAAPDILLTQSPGTLSLSPGERATLSCRASQSIYTNIHWYQQKPGQAPRLLIKYASESISGIPDRFSGSGSGTDFTLTISRLEPEDFAVYYCQQNLNWPTTFGQGTKLEIK
For the molecule B7, in assay [5], the Kd came to 8.5 nM, the koff turned out to be 0.00024 s⁻¹ and the kon was 28000 M⁻¹ s⁻¹.

B8: DVD2349 (bispecific antibody)
VH: EVQLVESGGGLVQPGGSLRLSCAASGFSLTNYGVHWVRQAPGKGLEWLGVGWSGGNTDYNTPFTSRLTINKDNSKNTVYLQMNSLRAEDTAVYYCARALTWYDYEFAYWGQGTLVTVSSASTKGPQVQLQESGPGLVKPSQTLSLTCTVSGYSISSDFAWNWIRQPPGKGLEWMGYISYSGNTRYQPSLKSRITISRDTSKNQFFLKLNSVTAADTATYYCVTAGRGFPYWGQGTLVTVSS
VL: DILLTQSPGTLSLSPGERATLSCRASQSIYTNIHWYQQKPGQAPRLLIKYASESISGIPDRFSGSGSGTDFTLTISRLEPEDFAVYYCQQNLNWPTTFGQGTKLEIKRTVAAPDIQMTQSPSSMSVSVGDRVTITCHSSQDINSNIGWLQQKPGKSFKGLIYHGTNLDDGVPSRFSGSGSGTDYTLTISSLQPEDFATYYCVQYAQFPWTFGGGTKLEIK
In the case of B8, in assay [5], the Kd was determined as 0.76 nM, the koff came out at 0.00045 s⁻¹ and the kon amounted to 580000 M⁻¹ s⁻¹.

B9: DVD2249 (bispecific antibody)
VH: EVQLLESGGGLVQPGGSLRLSCAASGFTFSHYVMAWVRQAPGKGLEWVSSISSSGGWTLYADSVKGRFTISRDNSKNTLYLQMNSLRAEDTAVYYCTRGLKMATIFDYWGQGTLVTVSSASTKGPSVFPLAPQVQLQQWGAGLLKPSETLSLTCAVYGGSFSGYYWSWIRQPPGKGLEWIGEINHSGSTNYNPSLKSRVTISVETSKNQFSLKLSSVTAADTAVYYCARDKWTWYFDLWGRGTLVTVSS
VL: QSALTQPASVSGSPGQSITISCTGTSSDVGSYNVVSWYQQHPGKAPKLIIYEVSQRPSGVSNRFSGSKSGNTASLTISGLQTEDEADYYCCSYAGSSIFVIFGGGTKVTVLGTVAAPDIEMTQSPDSLAVSLGERATINCRSSQSVLYSSSNRNYLAWYQQNPGQPPKLLIYWASTRESGVPDRFSGSGSGTDFTLTISSLQAEDVAVYYCQQYYSTPRTFGQGTKVEIK
notes: DVD-Ig, outer AB116 / inner AB062
B9: in assay [6], the Kd came to 5.6 nM, the koff was 0.00022 s⁻¹ and the kon was determined as 39000 M⁻¹ s⁻¹.

B10: DVD2238 (bispecific antibody)
VH: QVQLQQWGAGLLKPSETLSLTCAVYGGSFSGYYWSWIRQPPGKGLEWIGEINHSGSTNYNPSLKSRVTISVETSKNQFSLKLSSVTAADTAVYYCARDKWTWYFDLWGRGTLVTVSSASTKGPEVQLVESGGGLVQPGGSLRLSCAASGFTFSIYSMNWVRQAPGKGLEWVSYISSSSSTIYYADSVKGRFTISRDNAKNSLYLQMNSLRDEDTAVYYCARDRGDFDAFDIWGQGTMVTVSS
VL: DIEMTQSPDSLAVSLGERATINCRSSQSVLYSSSNRNYLAWYQQNPGQPPKLLIYWASTRESGVPDRFSGSGSGTDFTLTISSLQAEDVAVYYCQQYYSTPRTFGQGTKVEIKRTVAAPDIQMTQSPSSLSASVGDRVTITCQASQDITNYLNWYQQKPGKAPKLLIYDASNLETGVPSRFSGSGSGTDFTFTISSLQPEDIATYNCQQCENFPITFGQGTRLEIK
notes: DVD-Ig, outer AB062 / inner AB063
For the molecule B10, in assay [6], the Kd amounted to 5.9 nM, the koff was determined as 0.0003 s⁻¹ and the kon is 51000 M⁻¹ s⁻¹.

B11: DVD2242 (bispecific antibody)
VH: QVQLQQWGAGLLKPSETLSLTCAVYGGSFSGYYWSWIRQPPGKGLEWIGEINHSGSTNYNPSLKSRVTISVETSKNQFSLKLSSVTAADTAVYYCARDKWTWYFDLWGRGTLVTVSSASTKGPSVFPLAPEVQLVESGGGLVQPGGSLRLSCAASGFTFSIYSMNWVRQAPGKGLEWVSYISSSSSTIYYADSVKGRFTISRDNAKNSLYLQMNSLRDEDTAVYYCARDRGDFDAFDIWGQGTMVTVSS
VL: B10 VL
notes: as for B10
Turning to B11, in assay [6], the Kd was 7.6 nM, the koff was 0.00051 s⁻¹ and the kon stood at 67000 M⁻¹ s⁻¹.
